From US6500934 (dated 2002)
Non-standard residues stand in square brackets, D forms with d. No end group written: not given here. Ahx = NCCCCCC(=O)O

Target: bombesin receptor expressed in transfected Xenopus laevis melanophores (plasmid pJG3.6BR)
Test: cell-based or functional assay

KKKKKKKKKKKKKKKKKKKK[Ahx]GGGQQRLGNQWAVGHLM-NH2 (ends and bridges not checked) [Bombesin monomer (K(20)-εAhx-GGG-QQRLGNQWAVGHLM)]
EC50 (t=30 min) of pigment dispersion in melanophores transfected with the bombesin receptor: 110 nM
